Measurements taken from publication PMC4390240 (PLoS ONE, 2015).
Several values for one entry are separate records, joined by “and”; a condition that tells them apart may be missing. Equal entries are not always repeated.

How the values were obtained:
[1] = biological target: the molecule itself; test: differential scanning calorimetry; oxidized dimer, 100 μM (heme unit), scan rate 1°C/min, 50 mM potassium phosphate buffer, pH 7.0; dimer to monomers
[2] = biological target: the molecule itself; test: SEC; gel chromatography (Superdex 75) at 4°C in 50 mM potassium phosphate buffer, pH 7.0, after addition of 80% (v/v) ethanol to 1 mM oxidized monomeric protein, lyophilization and resolvation with buffer

B1: Pseudomonas aeruginosa cytochrome c 551, wild type (natural protein, UniProt P00099 23-104, looked up)
chain: EDPEVLFKNKGCVACHAIDTKMVGPAYKDVAAKFAGQAGAEAELAQRIKNGSQGVWGPIPMPPNAVSDDEAQTLAKWVLSQK
modifications: heme attached covalently to two Cys residues (heme-linked Cys12 and Cys15); His16 and Met61 coordinated to the heme iron; oxidized
notes: residues printed from Glu1; source: E. coli JCB387, purified (oxidized)
dH of dissociation of the dimer to monomers [1]: ~0 kcal/mol | stoichiometry N [2]: 2 and 3 and 4
